Reference: article PMC10899662, “TopBP1 utilises a bipartite GINS binding mode to support genome replication” (Nature Communications, 2024)

Legend:
Format in all cases: binding
[1] = test system: GINS lacking the Psf1-B domain (Psf1-ΔB); experiment: Pulldown of TopBP1 versions by GINS with Psf1-ΔB compared to GINS-WT; settings: GINS-WT vs Psf1-ΔB
Text: (§1) We next explored the relationship between the interactions of TopBP1 and DNA Polε with GINS. These proteins are part of the recently characterised metazoan pre-LC[37]–[40]. […] These pre-LC models are less informative on how DNA Polε affects the TopBP1-GINS interaction. The N-terminal region of PolE2 (PolE2-N; aa 1–75) binds GINS mainly at the Psf1-B domain, with minor interactions with residues in the A-domain that partly overlap with the TopBP1-BRCT4 interaction surface (Fig. 7a–c). To test if the Psf1-B domain is required for TopBP1 interaction, we did pulldowns with GINS lacking the Psf1-B domain (Psf1-ΔB). […] This could be due to a residual affinity of BRCT4 for Psf1-ΔB or due to the GINI-Psf1 interaction. We therefore analysed specifically the interaction of GINS with BRCT4 using the TopBP1-Gcc mutant. […] The moderate effect of the B domain deletion on BRCT4 binding is consistent with the partial overlap of the BRCT4 and PolE2 binding sites in Psf1. […] Together, in pre-LC, TopBP1 likely binds GINS through the GINI region, potentially also involving a residual affinity of BRCT4 for GINS despite the presence of DNA Polε. TopBP1 and GINS are likely further stabilised in pre-LCs via their interactions with DONSON[37],[38],[41]. […]

GINS = experiment: Competition of PolE2-N with TopBP1 for immobilised GINS; settings: 150 mM NaCl; ten times molar excess of PolE2-N
Text: as §1

53BP1 = experiment: Pulldown of endogenous 53BP1 from 293T cell lysates with recombinant TopBP1; settings: pulldown from 293T cell lysates, immunoblotting; 2 h, 4 °C
Method: For pulldown assays from soluble lysates of non-transfected 293T cells, 5 µl streptactin Sepharose HP (Cytiva, 28935599) beads were coupled with 10 µg recombinant TopBP1-1-766-strep-WT or mutants in coupling buffer (20 mM HEPES pH 8.0, 150 mM NaCl, 0.1% (v/v) Tween-20, 0.5 mM TCEP, 2% (v/v) glycerol) for 45 min at 4 °C before washing two times with coupling buffer and then once in cell lysis buffer (20 mM HEPES pH 8.0, 150 mM NaCl, 0.1% (v/v) Tween-20, 0.5 mM TCEP, 2% (v/v) glycerol, protease inhibitor cocktail (Roche Complete protease inhibitor cocktail, 05056489001). Control pulldowns were done with Flag-peptide-coupled beads or, when indicated, using GINS-coupled beads and the non-GINS binding TopBP1-Gcc-B4mut. 293T cells were lysed in ten times pellet volume of cell lysis buffer, and centrifuged at 20,000 × g for 15 min at 4 °C. Soluble lysate from cells equivalent to 50% of a 15 cm tissue culture plate was added to the TopBP1-coupled beads and incubated for 2 h at 4 °C rotating. Beads were washed three times with 5 min incubation in lysis buffer and boiled in 50 µl Laemmli buffer before SDS PAGE.
Supplementary Fig. 6: Experiments to control quality of recombinant protein mutants. a: Recombinant TopBP1 point mutants of the GINI and BRCT4 regions bind 53BP1 phospho-dependently. […] Lysates and pulldowns were analysed by immunoblofng. […]

Row | effect of Psf1-B domain deletion on TopBP1 binding, 100 mM NaAc [1] | Molecule | competition by PolE2-N in stringent pulldown conditions (GINS) | binding to (phospho-)53BP1 (53BP1)
1 | the B domain had no influence | TopBP1-BRCT0-5-WT: recombinant TopBP1 amino acids 1–766, strep-tagged (protein, left off: Strep, C-terminal, kept, recombinant TopBP1 amino acids 1–766, strep-tagged) MSRNDKEPFFVKFLKSSDNSKCFFKALESIKEFQSEEYLQIITEEEALKIKENDRSLYICDPFSGVVFDHLKKLGCRIVGPQVVIFCMHHQRCVPRAEHPVYNMVMSDVTISCTSLEKEKREEVHKYVQMMGGRVYRDLNVSVTHLIAGEVGSKKYLVAANLKKPILLPSWIKTLWEKSQEKKITRYTDINMEDFKCPIFLGCIICVTGLCGLDRKEVQQLTVKHGGQYMGQLKMNECTHLIVQEPKGQKYECAKRWNVHCVTTQWFFDSIEKGFCQDESIYKTEPRPEAKTMPNSSTPTSQINTIDSRTLSDVSNISNINASCVSESICNSLNSKLEPTLENLENLDVSAFQAPEDLLDGCRIYLCGFSGRKLDKLRRLINSGGGVRFNQLNEDVTHVIVGDYDDELKQFWNKSAHRPHVVGAKWLLECFSKGYMLSEEPYIHANYQPVEIPVSHKPESKAALLKKKNSSFSKKDFAPSEKHEQADEDLLSQYENGSSTVVEAKTSEARPFNDSTHAEPLNDSTHISLQEENQSSVSHCVPDVSTITEEGLFSQKSFLVLGFSNENESNIANIIKENAGKIMSLLSRTVADYAVVPLLGCEVEATVGEVVTNTWLVTCIDYQTLFDPKSNPLFTPVPVMTGMTPLEDCVISFSQCAGAEKESLTFLANLLGASVQEYFVRKSNAKKGMFASTHLILKERGGSKYEAAKKWNLPAVTIAWLLETARTGKRADESHFLIENSTKEERSLETEITNGINLNSDTAEHP | largely resistant to PolE2 competition | 
2 |  | TopBP1-Gpp: TopBP1-BRCT0-5, central leucine-leucine motif mutated to two consecutive prolines (protein, left off: Strep, C-terminal, kept, TopBP1-BRCT0-5, central leucine-leucine motif mutated to two consecutive prolines) MSRNDKEPFFVKFLKSSDNSKCFFKALESIKEFQSEEYLQIITEEEALKIKENDRSLYICDPFSGVVFDHLKKLGCRIVGPQVVIFCMHHQRCVPRAEHPVYNMVMSDVTISCTSLEKEKREEVHKYVQMMGGRVYRDLNVSVTHLIAGEVGSKKYLVAANLKKPILLPSWIKTLWEKSQEKKITRYTDINMEDFKCPIFLGCIICVTGLCGLDRKEVQQLTVKHGGQYMGQLKMNECTHLIVQEPKGQKYECAKRWNVHCVTTQWFFDSIEKGFCQDESIYKTEPRPEAKTMPNSSTPTSQINTIDSRTLSDVSNISNINASCVSESICNSLNSKLEPTLENLENLDVSAFQAPEDLLDGCRIYLCGFSGRKLDKLRRLINSGGGVRFNQLNEDVTHVIVGDYDDELKQFWNKSAHRPHVVGAKWLLECFSKGYMLSEEPYIHANYQPVEIPVSHKPESKAALLKKKNSSFSKKDFAPSEKHEQADEDPPSQYENGSSTVVEAKTSEARPFNDSTHAEPLNDSTHISLQEENQSSVSHCVPDVSTITEEGLFSQKSFLVLGFSNENESNIANIIKENAGKIMSLLSRTVADYAVVPLLGCEVEATVGEVVTNTWLVTCIDYQTLFDPKSNPLFTPVPVMTGMTPLEDCVISFSQCAGAEKESLTFLANLLGASVQEYFVRKSNAKKGMFASTHLILKERGGSKYEAAKKWNLPAVTIAWLLETARTGKRADESHFLIENSTKEERSLETEITNGINLNSDTAEHP |  | no effect on binding to 53BP1
3 | the B domain had no influence | TopBP1-B4mut: Val590, Thr606 and Val610 mutated to glutamate, arginine and glutamate (protein, left off: Strep, C-terminal, kept) MSRNDKEPFFVKFLKSSDNSKCFFKALESIKEFQSEEYLQIITEEEALKIKENDRSLYICDPFSGVVFDHLKKLGCRIVGPQVVIFCMHHQRCVPRAEHPVYNMVMSDVTISCTSLEKEKREEVHKYVQMMGGRVYRDLNVSVTHLIAGEVGSKKYLVAANLKKPILLPSWIKTLWEKSQEKKITRYTDINMEDFKCPIFLGCIICVTGLCGLDRKEVQQLTVKHGGQYMGQLKMNECTHLIVQEPKGQKYECAKRWNVHCVTTQWFFDSIEKGFCQDESIYKTEPRPEAKTMPNSSTPTSQINTIDSRTLSDVSNISNINASCVSESICNSLNSKLEPTLENLENLDVSAFQAPEDLLDGCRIYLCGFSGRKLDKLRRLINSGGGVRFNQLNEDVTHVIVGDYDDELKQFWNKSAHRPHVVGAKWLLECFSKGYMLSEEPYIHANYQPVEIPVSHKPESKAALLKKKNSSFSKKDFAPSEKHEQADEDLLSQYENGSSTVVEAKTSEARPFNDSTHAEPLNDSTHISLQEENQSSVSHCVPDVSTITEEGLFSQKSFLVLGFSNENESNIANIIKENAGKIMSLLSRTEADYAVVPLLGCEVEARVGEEVTNTWLVTCIDYQTLFDPKSNPLFTPVPVMTGMTPLEDCVISFSQCAGAEKESLTFLANLLGASVQEYFVRKSNAKKGMFASTHLILKERGGSKYEAAKKWNLPAVTIAWLLETARTGKRADESHFLIENSTKEERSLETEITNGINLNSDTAEHP |  | could still interact with phospho-53BP1
